Source: PMC6854463, “Structural Basis for Broad HIV-1 Neutralization by the MPER-Specific Human Broadly Neutralizing Antibody LN01” (Cell Host & Microbe, 2019)
Several values for one entry are separate records, joined by “and”; a condition that tells them apart may be missing. Equal values may be shown once.

Tests used:
Settings in all cases: both partners purified
[1] = biological target: T1, MPER-TM2 (gp41 residues 630-711, containing the complete TM region) (HIV-1 group M; Env Q74599 (HXB2-like), …, UniProt Q74599); experiment: BLI; Octet Red; biotinylated IgG on Streptavidin biosensors; MPER-TM2 in 25 mM HEPES pH 7.5, 150 mM NaCl, 0.1 % Fos-Choline-12, 25°C; global fit 1:1 model or steady state analysis
T1 construct: not shown: His-tag, N-terminal, cleaved; flag-tag, N-terminal, cleaved

[2] = biological target: T1, MPER-TM2 (gp41 residues 630-711, …); experiment: SPR
[3] = biological target: T2, MPER-TM1 peptide (gp41 residues 671-689) (HIV-1, strain  (6SNC maps to …)); experiment: SPR
T2 construct: also called gp41 MPER-TM1; source: synthetic peptide (Smart Bioscience, Grenoble)

Binder | Kd [1] | binding result [1] | other results
LN01 sH/gL (antibody, V domains shown, IgG; source: Expi293F, transient transfection (PEI), purified by protein A chromatography) VH: QVQLEESGPGLVQPWGTLSLTCRVSGDSVSNDNYYWAWIRQTPGRELQVIGTIYYSGTTYYNPSLRNRVTISLDKSVNVVSLRLGSVSAADTAQYYCVRMPSHGFWSTSFSYWYFDLWGRGHFVAVSW VL: not shown | 453 ± 82 nM |  | 
LN01 recombinant IgG1 monoclonal antibody (antibody, V domains shown, also called LN01 IgG1; IgG1 LN01 antibody; source: Expi293F, transient transfection (PEI), purified by protein A chromatography) VH: QVQLEESGPGLVQPWGTLSLTCRVSGDSVSNDNYYWAWIRQTPGRELQVIGTIYYSGTTYYNPSLRNRVTISLDKSVNVVSLRLGSVSAADTAQYYCVRMPSHGFWSTSFSYWYFDLWGRGHFVAVSW VL: DIQMTQSPSSLSASVGDKVTITCRASQSVTKYLNWYQFKTGQAPRILIYGTYTLLSGVSPRFSGAGSGSLYTLTITNIQPEDFATYYCQQAHSTPWTFGQGTHVAAN | 2.3 ± 0.01 nM |  | Kd [2]: 13 nM; Kd [3]: 161 nM and 170 nM
LN01 sH/gL-FR (antibody, V domains shown, IgG; source: Expi293F, transient transfection (PEI), purified by protein A chromatography) VH: QVQLEESGPGLVQPWGTLSLTCRVSGDSVSNDNYYWAWIRQTPGRELQVIGTIYYSGTTYYNPSLRNRVTISLDKSVNVVSLRLGSVSAADTAQYYCVRMPSHGFWSTSFSYWYFDLWGRGHFVAVSW VL: DIQMTQSPSSLSASVGDRVTITCRASQSVTKYLNWYQQKPGKAPKLLIYGTYSLQSGVPSRFSGSGSGTDFTLTISSLQPEDFATYYCQQAHSTPWTFGQGTKVEIK | 7 ± 0.03 nM |  | 
LN01 gH/UCA (antibody, V domains shown, IgG; source: Expi293F, transient transfection (PEI), purified by protein A chromatography) VH: QLQLQESGPGLVKPSETLSLTCTVSGGSISSSSYYWGWIRQPPGKGLEWIGSIYYSGSTYYNPSLKSRVTISVDTSKNQFSLKLSSVTAADTAVYYCVRMPSHGFWSTSFSYWYFDLWGRGTLVTVSS VL: not shown | 4700 ± 1700 nM |  | 
LN01 UCA/gL (antibody, V domains shown, IgG; source: Expi293F, transient transfection (PEI), purified by protein A chromatography) VH: QLQLQESGPGLVKPSETLSLTCTVSGGSISSSSYYWGWIRQPPGKGLEWIGSIYYSGSTYYNPSLKSRVTISVDTSKNQFSLKLSSVTAADTAVYYCVRMPSHGFWSGYFSYWYFDLWGRGTLVTVSS VL: not shown |  | no binding | 
LN01 UCA/sL (antibody, V domains shown, IgG; source: Expi293F, transient transfection (PEI), purified by protein A chromatography) VH: QLQLQESGPGLVKPSETLSLTCTVSGGSISSSSYYWGWIRQPPGKGLEWIGSIYYSGSTYYNPSLKSRVTISVDTSKNQFSLKLSSVTAADTAVYYCVRMPSHGFWSGYFSYWYFDLWGRGTLVTVSS VL: DIQMTQSPSSLSASVGDKVTITCRASQSVTKYLNWYQFKTGQAPRILIYGTYTLLSGVSPRFSGAGSGSLYTLTITNIQPEDFATYYCQQAHSTPWTFGQGTHVAAN |  | no binding | 
LN01 gH/gL (antibody, V domains shown, IgG; source: Expi293F, transient transfection (PEI), purified by protein A chromatography) VH: QLQLQESGPGLVKPSETLSLTCTVSGGSISSSSYYWGWIRQPPGKGLEWIGSIYYSGSTYYNPSLKSRVTISVDTSKNQFSLKLSSVTAADTAVYYCVRMPSHGFWSTSFSYWYFDLWGRGTLVTVSS VL: not shown | 1400 nM |  | 
LN01 UCA/UCA (antibody, V domains shown, also called the UCA version of LN01; source: Expi293F, transient transfection (PEI), purified by protein A chromatography) VH: QLQLQESGPGLVKPSETLSLTCTVSGGSISSSSYYWGWIRQPPGKGLEWIGSIYYSGSTYYNPSLKSRVTISVDTSKNQFSLKLSSVTAADTAVYYCVRMPSHGFWSGYFSYWYFDLWGRGTLVTVSS VL: not shown |  | no binding | 
LN01 gH/sL (antibody, V domains shown, IgG; source: Expi293F, transient transfection (PEI), purified by protein A chromatography) VH: QLQLQESGPGLVKPSETLSLTCTVSGGSISSSSYYWGWIRQPPGKGLEWIGSIYYSGSTYYNPSLKSRVTISVDTSKNQFSLKLSSVTAADTAVYYCVRMPSHGFWSTSFSYWYFDLWGRGTLVTVSS VL: DIQMTQSPSSLSASVGDKVTITCRASQSVTKYLNWYQFKTGQAPRILIYGTYTLLSGVSPRFSGAGSGSLYTLTITNIQPEDFATYYCQQAHSTPWTFGQGTHVAAN | 6.2 ± 0.02 nM |  | 
